# Reference: patent US20160354479A1 (ESBATECH AN ALCON BIOMEDICAL RESEARCH UNIT, published 2016)
# Columns and labels:
# [1] = biological target: T1, Human TNF alpha (human, UniProt P01375 77-233); assay: direct ELISA on coated human TNF alpha, detection with biotinylated rabbit anti-ESBA105 antibody and streptavidin poly-HRP, OD 450 nm
# T1 construct: Coated on the ELISA plate
# Description: Binding of ESBA105 and its derivatives was assessed by a direct ELISA. Human TNF alpha (PeproTech EC Ltd) was coated on a 96-well microtitre plate and then blocked using BSA (bovine serum albumin). ESBA105 and ESBA105 derivates were tested at concentrations of 50 nM, 12.5 nM, 3.13 nM, 1.56 nM, 0.78 nM, 0.39 nM, 0.20 nM, 0.10 nM and 0.05 nM. Binding of ESBA105 and its derivatives to human TNF alpha was visualized by the subsequent addition of a biotinylated rabbit polyclonal anti-ESBA105 antibody (AK3A, generated at ESBATech), streptavidin Poly HRP and a chromogenic substrate (POD). The product of this reaction was detected by measurement of the optical densitiy (OD) at […] using a spectrophotometer. Data were analyzed using a 4-parameter logistic curve fit, and EC₅₀ values were calculated from the dose-response curves of the scFvs.
# [2] = biological target: T2, recombinant human VEGF165 (human, UniProt P15692-4 27-191); assay: SPR, BIAcore T100, hVEGF165 immobilized, 1:1 fit (FIG. 7A)
# T2 construct: Amine-coupled to a CM4 sensor chip; also called hVEGF165
# T2 sequence (P15692 other isoform, or with tags, fused parts or gaps limits assumed): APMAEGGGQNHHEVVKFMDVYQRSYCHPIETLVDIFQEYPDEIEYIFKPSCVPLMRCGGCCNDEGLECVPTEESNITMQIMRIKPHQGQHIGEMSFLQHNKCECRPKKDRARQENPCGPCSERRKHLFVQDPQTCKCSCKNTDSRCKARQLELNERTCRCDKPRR
# Description: (§1) For binding affinity measurements, surface Plasmon resonance measurements with BIAcore™-T100 were employed. In these experiments, purified Escherichia coli-expressed recombinant human VEGF₁₆₅ (PeproTech EC Ltd) was used. Carboxymethylated dextran biosensor chips (CM4, GE Healthcare) were activated with N-ethyl-N′-(3-dimethylaminopropyl)carbodiimide hydrochloride and N-hydroxysuccinimide according to the supplier's instructions. Human VEGF₁₆₅ was coupled to 1 of the 4 different flow cells on a CM4 sensor chip using a standard amine-coupling procedure. The range of responses obtained with the immobilized hVEGF₁₆₅ molecule after coupling and blocking was approximately 120-140 response units (RU). The 4th flow cell of each chip was treated similarly except no proteins were immobilized prior to blocking, and the flow cell was used as in-line reference. Various concentrations of anti-VEGF scFvs (20 nM, 10 nM, 5 nM, 2.5 nM, 1.25 nM, 0.63 nM, 0.31 nM and 0.16 nM) in HBS-EP buffer (0.01 M HEPES, pH 7.4, 0.15 M NaCl, 3 mM EDTA, 0.005% surfactant P20) were injected into the flow cells at a flow rate of 30 μl/min for 5 min. Dissociation of the anti-VEGF scFv from the VEGF on the CM4 chip was allowed to proceed for 10 min at 25° C. Sensorgrams were generated for each anti-VEGF scFv sample after in-line reference cell correction followed by buffer sample subtraction. The apparent dissociation rate constant (kd), the apparent association rate constant (kₐ) and the apparent dissociation equilibrium constant (KD) were calculated using one-to-one Langmuir binding model with BlAcore T100 evaluation Software version 1.1.
# [3] = biological target: T2, recombinant human VEGF165; assay: SPR, BIAcore T100, hVEGF165 immobilized
# Description: as §1, with “Dissociation of the anti-VEGF scFv from the VEGF on the CM4 chip was allowed to proceed for 10 min at 25° C. Sensorgrams were generated for each anti-VEGF scFv sample after in-line reference cell correction followed by buffer sample subtraction.” left out
# [4] = biological target: T2, recombinant human VEGF165; assay: SPR, BIAcore T100, hVEGF165 immobilized, 1:1 fit (FIG. 7B)
# Description: as §1, with “Dissociation of the anti-VEGF scFv from the VEGF on the CM4 chip was allowed to proceed for 10 min at 25° C. Sensorgrams were generated for each anti-VEGF scFv sample after in-line reference cell correction followed by buffer sample subtraction.” left out
# T1 sequence (P01375 77-233 limits assumed): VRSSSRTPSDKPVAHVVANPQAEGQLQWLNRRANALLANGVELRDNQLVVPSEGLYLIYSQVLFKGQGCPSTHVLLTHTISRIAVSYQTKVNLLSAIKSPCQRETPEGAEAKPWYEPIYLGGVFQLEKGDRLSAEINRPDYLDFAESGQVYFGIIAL
binder,measurement,setting,value
"ESBA105-SS-linker (scFv, un-pegylated) scFv: MADIVMTQSPSSLSASVGDRVTLTCTASQSVSNDVVWYQQRPGKAPKLLIYSAFNRYTGVPSRFSGRGYGTDFTLTISSLQPEDVAVYYCQQDYNSPRTFGQGTKLEVKRGGGGSGGGGSCGGGSGGGCGGGGSGGGGSQVQLVQSGAEVKKPGASVKVSCTASGYTFTHYGMNWVRQAPGKGLEWMGWINTYTGEPTYADKFKDRFTFSLETSASTVYMELTSLTSDDTAVYYCARERGDAMDYWGQGTLVTVSS",EC50 (read off the curve),[1],~1 nM
"ESBA903 (scFv, Anti-VEGF scFv; also called ESBA903 Normal linker; unmodified ESBA903) scFv: MEIVMTQSPSTLSASVGDRVIITCQASEIIHSWLAWYQQKPGKAPKLLIYLASTLASGVPSRFSGSGSGAEFTLTISSLQPDDFATYYCQNVYLASTNGANFGQGTKLTVLGGGGGSGGGGSGGGGSGGGGSEVQLVESGGGLVQPGGSLRLSCTASGFSLTDYYYMTWVRQAPGKGLEWVGFIDPDDDPYYATWAKGRFTISRDTSKNTVYLQMNSLRAEDTAVYYCAGGDHNSGWGLDIWGQGTLVTVSS",Kd,[2],0.0561 nM
same,koff,[2],4.31e-05 s⁻¹
same,kon,[2],768000 M⁻¹ s⁻¹
"ESBA903 SS Pep1 linker (scFv, also called ESBA903-Pep1) scFv: MEIVMTQSPSTLSASVGDRVIITCQASEIIHSWLAWYQQKPGKAPKLLIYLASTLASGVPSRFSGSGSGAEFTLTISSLQPDDFATYYCQNVYLASTNGANFGQGTKLTVLGGGGGSGGGGSCGAHWQFNALTVRCGGGGSGGGGSEVQLVESGGGLVQPGGSLRLSCTASGFSLTDYYYMTWVRQAPGKGLEWVGFIDPDDDPYYATWAKGRFTISRDTSKNTVYLQMNSLRAEDTAVYYCAGGDHNSGWGLDIWGQGTLVTVSS",Kd,[3],0.0444 nM
same,koff,[4],5.03e-05 s⁻¹
same,kon,[4],1.13e+06 M⁻¹ s⁻¹
"ESBA105 (scFv, Untreated scFv (VL-linker-VH), made in E. coli; also called ESBA105 Normal linker; naked ESBA105) scFv: MADIVMTQSPSSLSASVGDRVTLTCTASQSVSNDVVWYQQRPGKAPKLLIYSAFNRYTGVPSRFSGRGYGTDFTLTISSLQPEDVAVYYCQQDYNSPRTFGQGTKLEVKRGGGGSGGGGSGGGGSSGGGSQVQLVQSGAEVKKPGASVKVSCTASGYTFTHYGMNWVRQAPGKGLEWMGWINTYTGEPTYADKFKDRFTFSLETSASTVYMELTSLTSDDTAVYYCARERGDAMDYWGQGTLVTVSS",EC50 (read off the curve),[1],~1 nM
